Article PMC10583557 (Molecular Biology and Evolution, 2023)

Experiments:
C. apon LDH = molecular target: T1, C. apon LDH (Cyanobacterium aponinum, UniProt K9Z684); assay: X-ray crystal structure of complex; assay type: binding; conditions: 2 mM each
T1 sequence (K9Z684 1-331): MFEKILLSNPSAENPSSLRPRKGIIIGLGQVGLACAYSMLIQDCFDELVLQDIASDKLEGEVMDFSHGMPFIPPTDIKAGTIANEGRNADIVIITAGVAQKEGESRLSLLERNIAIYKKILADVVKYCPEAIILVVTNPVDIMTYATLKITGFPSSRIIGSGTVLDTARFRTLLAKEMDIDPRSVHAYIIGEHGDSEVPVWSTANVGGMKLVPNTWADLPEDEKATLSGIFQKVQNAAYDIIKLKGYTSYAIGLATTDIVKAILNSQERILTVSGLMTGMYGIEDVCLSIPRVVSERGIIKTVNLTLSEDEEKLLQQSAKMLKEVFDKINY

[1] = molecular target: Y190W C. apon LDH (Cyanobacterium aponinum); assay: AUC
SEC-MALS = molecular target: the molecule itself; assay: SEC-MALS

NC(=O)C1=CN([C@@H]2O[C@H](COP(=O)(O)OP(=O)(O)OC[C@H]3O[C@@H](n4cnc5c(N)ncnc54)[C@H](O)[C@@H]3O)[C@@H](O)[C@H]2O)C=CC1 [NADH]
X-ray crystal structure of complex (C. apon LDH; cofactor site, with oxamate and FBP): active sites of each monomer occupied with a NADH and an oxamate molecule

NC(=O)C(=O)O [oxamate]
X-ray crystal structure of complex (C. apon LDH; active site, substrate analogue, with NADH and FBP): active sites of each monomer occupied with a NADH and an oxamate molecule

Y190W C. apon LDH (enzyme)
stoichiometry N [1]: 4

B1: Cyanobacterium aponinum lactate dehydrogenase, wild type (enzyme)
chain: T1 sequence (K9Z684 1-331)
stoichiometry N (SEC-MALS): 4

B2: ΔN-ter C. apon LDH (N-terminal sequence … deleted) (domain or fragment, Cyanobacterium aponinum, UniProt K9Z684 21-331, looked up)
chain: RKGIIIGLGQVGLACAYSMLIQDCFDELVLQDIASDKLEGEVMDFSHGMPFIPPTDIKAGTIANEGRNADIVIITAGVAQKEGESRLSLLERNIAIYKKILADVVKYCPEAIILVVTNPVDIMTYATLKITGFPSSRIIGSGTVLDTARFRTLLAKEMDIDPRSVHAYIIGEHGDSEVPVWSTANVGGMKLVPNTWADLPEDEKATLSGIFQKVQNAAYDIIKLKGYTSYAIGLATTDIVKAILNSQERILTVSGLMTGMYGIEDVCLSIPRVVSERGIIKTVNLTLSEDEEKLLQQSAKMLKEVFDKINY
stoichiometry N (SEC-MALS): 2
